Experimental data reported in US20250002594A1 (SHANGHAI EPIMAB BIOTHERAPEUTICS, published 2025).

B1: CD122-mAb77 (antibody, V domains shown)
VH: QVQLQQSGPELVKPGASVKMSCKASGYRFSDYVISWVKQRSGQGLEWIGEIYPGDGNTYYNEMFKGRATLTADKSPNTAYMKLSSLTSEDSALYFCARGSYTYDNYAMDFWGQGTSVTVSS
VL: DVLMTQTPLSLPVSLGDQASISCRSSQNIVHSNGNTYLEWYLQKPGQSPKLLIYKVSNRFSGVPDRFSGSGSGTDFTLKISRVEAEDLGLYYCFQGSHIPWTFGGGTKLEIK
notes: Mouse hybridoma antibody; also called clone #CD122-mAb77
B2: CD132-mAb17 (antibody, V domains shown)
VH: EVQLQQPGSELVRPGASVKLSCKASGYTFTSYWMHWMKQRPGQGLEWIGHIYLGGGATNYAEKFRSKATLTADTSSSTAYMQLSSLTSEDSAVYYCTRSQPYYYGMDSWGQGTSVTVSS
VL: DIQMTQTPSSLSASLGDRVTISCRASQDISNYLNWYQQKPDGTVKLLIYYKSRLHSGVPSRFSGSGSGTEYSLTINNLEQEDFATYFCHQGHTIPFTFGSGTKLEIK
notes: Mouse hybridoma antibody; also called clone #CD132-mAb17; mAb CD132-mAb17

Columns and labels:
[1] = target: T1, recombinant human CD122 (human, UniProt P14784 27-239, limits assumed); test: hybridoma supernatant screening, method not described
T1 construct: also called IL-2Rβ
T1 sequence (looked up): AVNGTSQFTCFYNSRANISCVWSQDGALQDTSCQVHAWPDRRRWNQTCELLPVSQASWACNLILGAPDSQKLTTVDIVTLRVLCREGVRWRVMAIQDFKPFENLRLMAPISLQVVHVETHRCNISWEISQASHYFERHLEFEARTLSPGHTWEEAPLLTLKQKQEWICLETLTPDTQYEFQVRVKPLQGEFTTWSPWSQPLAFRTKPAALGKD

[2] = target: T2, recombinant human CD132 (human, UniProt P31785 23-262, limits assumed); test: as above
T2 construct: also called IL-2Rγ
T2 sequence (looked up): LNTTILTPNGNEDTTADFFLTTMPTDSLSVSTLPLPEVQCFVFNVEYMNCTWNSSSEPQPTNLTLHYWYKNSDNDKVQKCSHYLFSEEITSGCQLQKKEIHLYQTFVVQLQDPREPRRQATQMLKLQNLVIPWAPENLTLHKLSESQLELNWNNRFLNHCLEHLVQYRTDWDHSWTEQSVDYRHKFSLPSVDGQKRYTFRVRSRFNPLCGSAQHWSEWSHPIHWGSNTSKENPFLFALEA

Binder	binding result [1]	binding result [2]
B1	binds	
B2		binds
